The target of this experiment is T1, PIGT, subunit of the human GPI transamidase (GPI-T) (human) (UniProt Q969N2).
T1 sequence (chain, disulfide bond from C182 to PIGK C92): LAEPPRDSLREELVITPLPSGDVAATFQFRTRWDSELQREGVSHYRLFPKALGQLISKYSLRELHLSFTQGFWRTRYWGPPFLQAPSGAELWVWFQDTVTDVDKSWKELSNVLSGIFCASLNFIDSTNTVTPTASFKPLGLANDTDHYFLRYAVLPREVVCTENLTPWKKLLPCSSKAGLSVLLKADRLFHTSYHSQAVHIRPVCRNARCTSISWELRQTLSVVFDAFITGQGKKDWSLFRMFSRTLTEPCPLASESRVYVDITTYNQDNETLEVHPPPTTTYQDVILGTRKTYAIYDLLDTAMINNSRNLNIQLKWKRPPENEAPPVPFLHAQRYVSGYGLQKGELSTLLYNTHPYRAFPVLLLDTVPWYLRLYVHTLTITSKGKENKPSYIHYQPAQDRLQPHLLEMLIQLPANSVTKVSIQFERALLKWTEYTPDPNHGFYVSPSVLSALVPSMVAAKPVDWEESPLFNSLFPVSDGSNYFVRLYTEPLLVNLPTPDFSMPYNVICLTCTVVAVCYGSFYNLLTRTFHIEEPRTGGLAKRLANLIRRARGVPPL

B1: PIGK C92A (enzyme)
chain: SHIEDQAEQFFRSGHTNNWAVLVCTSRFWFNYRHVANTLSVYRSVKRLGIPDSHIVLMLADDMAANPRNPKPATVFSHKNMELNVYGDDVEVDYRSYEVTVENFLRVLTGRIPPSTPRSKRLLSDDRSNILIYMTGHGGNGFLKFQDSEEITNIELADAFEQMWQKRRYNELLFIIDTCQGASMYERFYSPNIMALASSQVGEDSLSHQPDPAIGVHLMDRYTFYVLEFLEEINPASQTNMNDLFQVCPKSLCVSTPGHRTDLFQRDPKNVLITDFFGSVRKVEITTETIKLQQDSEIMESSYKEDQMDEKLMEPLKYAEQLPVAQIIHQKPKLKDWHPPGGFILGLWALIIMVFFKTYGIKHMKFIF
In the case of B1, the apparent GPI-T activity: surface staining of the reporter GPI-AP CD59 on PIGK knockout cells by flow cytometry, compared to the wild-type PIGK (% of wild-type) was 61.

These data come from PMC9098846, “Molecular insights into biogenesis of glycosylphosphatidylinositol anchor proteins” (Nature Communications, 2022).
